# Measurements from patent US20020107366A1 (JURIDICAL FOUNDATION THE CHEMO SERO THERAPEUTIC RESEARCH …, published 2002).
# B1: FLAF p40 (ligand)
# chain: IWELEKNVYVVELDWHPDAPGEMVVLTCNTPEEDDITWTSDQSSEVLGSGKTLTIQVKEFADAGQYTCHKGGEVLSHSFLLIHKKEDGIWSTDILREQKESKNKIFLKCEAKNYSGRFTCWWLTAISTDLKFTVKSSRGSSDPQGVTCGAATLSAEKVRVDNRDYKKYTVECQEGSACPAAEESLPIEVVVDAIHKLKYENYTSSFFIRDIIKPDPPKNLQLKPLKNSRHVEVSWEYPDTWSTPHSYFSLTFGVQVQGKNNREKKDRLSVDKTSAKVVCHKDAKIRVQARDRYYSSSWSNWASVSCS
# notes: also called protein with a molecular weight of about 40,000
# Columns and labels:
# [1] = molecular target: B1; assay: non-reducing SDS-PAGE and Western blot with anti-p35 and anti-p40 antibodies; subunit association
# Protocol: These bands were analyzed by Western blot as described in Example 2 wherein two membranes were prepared, i.e. one using a monoclonal antibody against the partial synthetic peptide of FLAF p35 produced by the clone F18-4 as described in Example 12 as a primary antibody and another using the antibody against FLAF p40 as described in Example 11. As a result, both p75 and p80 reacted with both antibodies to confirm that they are both heterologous dimer of FLAF p35 and FLAF p40.
# [2] = molecular target: the molecule itself; assay: Western blot of culture supernatant of COS7 cells transfected with CAGfp40; self-association of p40
# Protocol: The day (20 hours) before transfection, COS7 cells were plated on a 6 well plate at 2×10⁵ cells/well. On the next day, Lipofect Ace reagent was mixed with the expression plasmid (1 μg of cAGf40 per well) and the mixture was left to stand at room temperature for 15 minutes and then added to the COS7 cells, followed by addition of serum free medium Opti-MEM (0.8 ml). On the next day, 2 ml of serum free medium (ASF104; Ajinomoto K. K.) was added and culture was continued for additional 2 days and then culture supernatant was recovered. A portion of the supernatant was subjected to Western blot as described in Example 11 to detect expression products which reacted with polyclonal antibodies which recognize FLAF p40. As a result, bands corresponding to FLAF p40 reactive with anti-FLAF p40 antibody (MW about 40,000) and to a homologous dimer thereof (MW about 80,000) were detected (FIG. 11).
# A polyclonal antibody against FLAF p40 was prepared by injecting each 1 ml of the FLAF p40 expression plasmid (CAGfp40) (1 mg/ml; Example 5) intramuscularly into both rear legs of a rabbit four times at every 3 weeks. Western blot was used to determine whether the obtained antibody recognized FLAF p40 (FIG. 16). First, purified FLAF was subjected to SDS-PAGE in the absence of 2-mercaptoethanol and then transferred to PVDF membrane as described in Example 3. […]
binding result [1],Binder,binding result [2]
binds,"FLAF p35 (ligand, also called protein with a molecular weight of about 35,000) RNLPTPTPSPGMFQCLNHSQTLLRAISNTLQKARQTLEFYSCTSEEIDHEDITKDKTSTVEACLPLELTMNESCLASREISLITNGSCLASRKTSFMTTLCLSSIYEDLKMYQVEFKAMNAKLLMDPKRQIFLDQNMLTAIDELLQALNVNSVTVPQNSSLEEPDFYKTKIKLCILLHAFRIRAVTINRMMSYLNSS",–
–,B1,binds
